Among the data in the supplement of paper PMC9428881 are background-corrected fluorescence values, retold here.

± gives the standard error.

The data set can be described thus: background-corrected fluorescence of 3'-dye-labeled ssDNA relative to brightest sequence (3'-GCGCG) (fraction); higher = brighter dye fluorescence (less quenching). A digest of the protocol:
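Arrays of single-stranded DNA, with a 3' Cy3 or Cy5 dye beside each of 1024 permuted pentamers, were built on glass slides through light-directed phosphoramidite synthesis. They were washed for 2 h at r.t. in acetonitrile and scanned at 532 or 635 nm, once before and once after overnight ethylenediamine/ethanol deprotection. Fluorescence is reported after subtracting unlabeled-oligo background and normalizing to the brightest sequence. Averages cover 10 features per array and at least 3 syntheses.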

For the sequence “TTTTTTCAGCAGCAGCAGCATTTTTTTTTTTTTTTGTTTT”, the background-corrected fluorescence is, setting by setting: (dye: Cy3 (3' terminal)) 0.531 ± 0.019; (dye: Cy5 (3' terminal)) 0.368 ± 0.021.
The matching figures for “TTTTTTCAGCAGCAGCATCATTTTTTTTTTTTTTTGTTTG”: 0.517 ± 0.028 and 0.33 ± 0.029.
As to “TTTTTTCAGCAGCAGCATGATTTTTTTTTTTTTTTGTTTC [CTTTG]”, the background-corrected fluorescence was 0.409 ± 0.024 (dye: Cy3 (3' terminal)) and 0.306 ± 0.036 (dye: Cy5 (3' terminal)).
In turn, “TTTTTTCAGCAGCAGCATGCTTTTTTTTTTTTTTTGTTTA [ATTTG]” had a background-corrected fluorescence (dye: Cy3 (3' terminal)) of 0.521 ± 0.027 and a background-corrected fluorescence (dye: Cy5 (3' terminal)) of 0.403 ± 0.022.
On the same counts, the results for “TTTTTTCAGCAGCATCAGCATTTTTTTTTTTTTTTGTTGT” are 0.679 ± 0.031 and 0.494 ± 0.027.
Turning to “TTTTTTCAGCAGCATCATCATTTTTTTTTTTTTTTGTTGG [GGTTG]”, the background-corrected fluorescence runs as follows: (dye: Cy3 (3' terminal)) 0.582 ± 0.0069; (dye: Cy5 (3' terminal)) 0.471 ± 0.028.
On to “TTTTTTCAGCAGCATCATGATTTTTTTTTTTTTTTGTTGC [CGTTG]”, for which the background-corrected fluorescence is, setting by setting: (dye: Cy3 (3' terminal)) 0.53 ± 0.024; (dye: Cy5 (3' terminal)) 0.389 ± 0.025.
As for “TTTTTTCAGCAGCATCATGCTTTTTTTTTTTTTTTGTTGA [AGTTG]”, the background-corrected fluorescence reads like this: (dye: Cy3 (3' terminal)) 0.632 ± 0.027; (dye: Cy5 (3' terminal)) 0.548 ± 0.046.
The matching figures for “TTTTTTCAGCAGCATGAGCATTTTTTTTTTTTTTTGTTCT [TCTTG]”: 0.459 ± 0.012 and 0.367 ± 0.027.
Regarding “TTTTTTCAGCAGCATGATCATTTTTTTTTTTTTTTGTTCG [GCTTG]”, the background-corrected fluorescence (dye: Cy3 (3' terminal)) was determined as 0.551 ± 0.0098 and the background-corrected fluorescence (dye: Cy5 (3' terminal)) is 0.371 ± 0.032.
On the same counts, the results for “TTTTTTCAGCAGCATGATGATTTTTTTTTTTTTTTGTTCC [CCTTG]” are 0.351 ± 0.018 and 0.275 ± 0.015.
The matching figures for “TTTTTTCAGCAGCATGATGCTTTTTTTTTTTTTTTGTTCA [ACTTG]”: 0.492 ± 0.025 and 0.389 ± 0.044.
The matching figures for “TTTTTTCAGCAGCATGCGCATTTTTTTTTTTTTTTGTTAT [TATTG]”: 0.546 ± 0.048 and 0.389 ± 0.017.
“TTTTTTCAGCAGCATGCTCATTTTTTTTTTTTTTTGTTAG [GATTG]”: the background-corrected fluorescence was determined as 0.541 ± 0.019 (dye: Cy3 (3' terminal)) and 0.438 ± 0.067 (dye: Cy5 (3' terminal)).
On the same counts, the results for “TTTTTTCAGCAGCATGCTGATTTTTTTTTTTTTTTGTTAC [CATTG]” are 0.447 ± 0.024 and 0.338 ± 0.055.
As to “TTTTTTCAGCAGCATGCTGCTTTTTTTTTTTTTTTGTTAA [AATTG]”, the background-corrected fluorescence (dye: Cy3 (3' terminal)) was determined as 0.57 ± 0.032 and the background-corrected fluorescence (dye: Cy5 (3' terminal)) was found to be 0.446 ± 0.027.
The matching figures for “TTTTTTCAGCATCAGCAGCATTTTTTTTTTTTTTTGTGTT”: 0.565 ± 0.028 and 0.435 ± 0.082.
The matching figures for “TTTTTTCAGCATCAGCATCATTTTTTTTTTTTTTTGTGTG”: 0.604 ± 0.017 and 0.43 ± 0.03.
Regarding “TTTTTTCAGCATCAGCATGATTTTTTTTTTTTTTTGTGTC [CTGTG]”, the background-corrected fluorescence was 0.4591 ± 0.0035 (dye: Cy3 (3' terminal)) and 0.356 ± 0.068 (dye: Cy5 (3' terminal)).
On the same counts, the results for “TTTTTTCAGCATCAGCATGCTTTTTTTTTTTTTTTGTGTA [ATGTG]” are 0.595 ± 0.019 and 0.434 ± 0.027.
Consider “TTTTTTCAGCATCATCAGCATTTTTTTTTTTTTTTGTGGT [TGGTG]”, for which the background-corrected fluorescence runs as follows: (dye: Cy3 (3' terminal)) 0.659 ± 0.02; (dye: Cy5 (3' terminal)) 0.544 ± 0.031.
The matching figures for “TTTTTTCAGCATCATCATCATTTTTTTTTTTTTTTGTGGG [GGGTG]”: 0.717 ± 0.024 and 0.586 ± 0.041.
The matching figures for “TTTTTTCAGCATCATCATGATTTTTTTTTTTTTTTGTGGC [CGGTG]”: 0.572 ± 0.011 and 0.439 ± 0.041.
On the same counts, the results for “TTTTTTCAGCATCATCATGCTTTTTTTTTTTTTTTGTGGA [AGGTG]” are 0.702 ± 0.022 and 0.606 ± 0.037.
Sequence “TTTTTTCAGCATCATGAGCATTTTTTTTTTTTTTTGTGCT [TCGTG]” returned a background-corrected fluorescence (dye: Cy3 (3' terminal)) of 0.504 ± 0.024 and a background-corrected fluorescence (dye: Cy5 (3' terminal)) of 0.414 ± 0.05.
In turn, “TTTTTTCAGCATCATGATCATTTTTTTTTTTTTTTGTGCG [GCGTG]” registered a background-corrected fluorescence (dye: Cy3 (3' terminal)) of 0.568 ± 0.056 and a background-corrected fluorescence (dye: Cy5 (3' terminal)) of 0.499 ± 0.028.
“TTTTTTCAGCATCATGATGATTTTTTTTTTTTTTTGTGCC [CCGTG]”: the background-corrected fluorescence by setting is: (dye: Cy3 (3' terminal)) 0.438 ± 0.022; (dye: Cy5 (3' terminal)) 0.332 ± 0.028.
On the same counts, the results for “TTTTTTCAGCATCATGATGCTTTTTTTTTTTTTTTGTGCA [ACGTG]” are 0.589 ± 0.02 and 0.483 ± 0.028.
The matching figures for “TTTTTTCAGCATCATGCGCATTTTTTTTTTTTTTTGTGAT [TAGTG]”: 0.548 ± 0.032 and 0.429 ± 0.021.
On the same counts, the results for “TTTTTTCAGCATCATGCTCATTTTTTTTTTTTTTTGTGAG [GAGTG]” are 0.619 ± 0.028 and 0.472 ± 0.057.
With “TTTTTTCAGCATCATGCTGATTTTTTTTTTTTTTTGTGAC [CAGTG]”, the background-corrected fluorescence reads like this: (dye: Cy3 (3' terminal)) 0.483 ± 0.02; (dye: Cy5 (3' terminal)) 0.387 ± 0.064.
On to “TTTTTTCAGCATCATGCTGCTTTTTTTTTTTTTTTGTGAA [AAGTG]”, for which the background-corrected fluorescence by setting is: (dye: Cy3 (3' terminal)) 0.607 ± 0.023; (dye: Cy5 (3' terminal)) 0.511 ± 0.032.
Consider “TTTTTTCAGCATGAGCAGCATTTTTTTTTTTTTTTGTCTT [TTCTG]”, for which the background-corrected fluorescence runs as follows: (dye: Cy3 (3' terminal)) 0.505 ± 0.017; (dye: Cy5 (3' terminal)) 0.364 ± 0.03.
On the same counts, the results for “TTTTTTCAGCATGAGCATCATTTTTTTTTTTTTTTGTCTG” are 0.54 ± 0.031 and 0.387 ± 0.025.
On the same counts, the results for “TTTTTTCAGCATGAGCATGATTTTTTTTTTTTTTTGTCTC [CTCTG]” are 0.393 ± 0.034 and 0.33 ± 0.043.
On the same counts, the results for “TTTTTTCAGCATGAGCATGCTTTTTTTTTTTTTTTGTCTA [ATCTG]” are 0.539 ± 0.01 and 0.381 ± 0.021.
For “TTTTTTCAGCATGATCAGCATTTTTTTTTTTTTTTGTCGT [TGCTG]”, the background-corrected fluorescence amounted to 0.581 ± 0.021 (dye: Cy3 (3' terminal)) and 0.451 ± 0.032 (dye: Cy5 (3' terminal)).
On the same counts, the results for “TTTTTTCAGCATGATCATCATTTTTTTTTTTTTTTGTCGG [GGCTG]” are 0.666 ± 0.025 and 0.506 ± 0.027.
On the same counts, the results for “TTTTTTCAGCATGATCATGATTTTTTTTTTTTTTTGTCGC [CGCTG]” are 0.556 ± 0.034 and 0.444 ± 0.032.
As to “TTTTTTCAGCATGATCATGCTTTTTTTTTTTTTTTGTCGA [AGCTG]”, the background-corrected fluorescence worked out at 0.645 ± 0.017 (dye: Cy3 (3' terminal)) and 0.548 ± 0.034 (dye: Cy5 (3' terminal)).
Take “TTTTTTCAGCATGATGAGCATTTTTTTTTTTTTTTGTCCT [TCCTG]”: the background-corrected fluorescence by setting is: (dye: Cy3 (3' terminal)) 0.464 ± 0.02; (dye: Cy5 (3' terminal)) 0.346 ± 0.024.
On the same counts, the results for “TTTTTTCAGCATGATGATCATTTTTTTTTTTTTTTGTCCG [GCCTG]” are 0.54 ± 0.027 and 0.429 ± 0.081.
On to “TTTTTTCAGCATGATGATGATTTTTTTTTTTTTTTGTCCC [CCCTG]”, for which the background-corrected fluorescence reads like this: (dye: Cy3 (3' terminal)) 0.38 ± 0.023; (dye: Cy5 (3' terminal)) 0.294 ± 0.019.
On the same counts, the results for “TTTTTTCAGCATGATGATGCTTTTTTTTTTTTTTTGTCCA [ACCTG]” are 0.484 ± 0.021 and 0.366 ± 0.023.
For the sequence “TTTTTTCAGCATGATGCGCATTTTTTTTTTTTTTTGTCAT [TACTG]”, the background-corrected fluorescence was 0.529 ± 0.025 (dye: Cy3 (3' terminal)) and 0.39 ± 0.03 (dye: Cy5 (3' terminal)).
The matching figures for “TTTTTTCAGCATGATGCTCATTTTTTTTTTTTTTTGTCAG [GACTG]”: 0.546 ± 0.028 and 0.404 ± 0.051.
The matching figures for “TTTTTTCAGCATGATGCTGATTTTTTTTTTTTTTTGTCAC [CACTG]”: 0.417 ± 0.0042 and 0.336 ± 0.022.
With “TTTTTTCAGCATGATGCTGCTTTTTTTTTTTTTTTGTCAA [AACTG]”, the background-corrected fluorescence reads like this: (dye: Cy3 (3' terminal)) 0.609 ± 0.012; (dye: Cy5 (3' terminal)) 0.453 ± 0.04.
With “TTTTTTCAGCATGCGCAGCATTTTTTTTTTTTTTTGTATT [TTATG]”, the background-corrected fluorescence is 0.5 ± 0.07 (dye: Cy3 (3' terminal)) and 0.375 ± 0.03 (dye: Cy5 (3' terminal)).
As to “TTTTTTCAGCATGCGCATCATTTTTTTTTTTTTTTGTATG”, the background-corrected fluorescence is 0.57 ± 0.011 (dye: Cy3 (3' terminal)) and 0.419 ± 0.027 (dye: Cy5 (3' terminal)).
On the same counts, the results for “TTTTTTCAGCATGCGCATGATTTTTTTTTTTTTTTGTATC [CTATG]” are 0.417 ± 0.024 and 0.309 ± 0.019.
Consider “TTTTTTCAGCATGCGCATGCTTTTTTTTTTTTTTTGTATA [ATATG]”, for which the background-corrected fluorescence stood at 0.55 ± 0.031 (dye: Cy3 (3' terminal)) and 0.404 ± 0.027 (dye: Cy5 (3' terminal)).
On the same counts, the results for “TTTTTTCAGCATGCTCAGCATTTTTTTTTTTTTTTGTAGT [TGATG]” are 0.575 ± 0.0066 and 0.459 ± 0.032.
The matching figures for “TTTTTTCAGCATGCTCATCATTTTTTTTTTTTTTTGTAGG [GGATG]”: 0.618 ± 0.027 and 0.51 ± 0.1.
“TTTTTTCAGCATGCTCATGATTTTTTTTTTTTTTTGTAGC [CGATG]” showed a background-corrected fluorescence (dye: Cy3 (3' terminal)) of 0.535 ± 0.028 and a background-corrected fluorescence (dye: Cy5 (3' terminal)) of 0.441 ± 0.081.
The matching figures for “TTTTTTCAGCATGCTCATGCTTTTTTTTTTTTTTTGTAGA [AGATG]”: 0.671 ± 0.021 and 0.533 ± 0.039.
The matching figures for “TTTTTTCAGCATGCTGAGCATTTTTTTTTTTTTTTGTACT [TCATG]”: 0.476 ± 0.0074 and 0.399 ± 0.025.
The matching figures for “TTTTTTCAGCATGCTGATCATTTTTTTTTTTTTTTGTACG”: 0.561 ± 0.02 and 0.475 ± 0.031.
